Target: Flag-NLS-Actin wt
Experiment: proximity ligation

endogenous BRM (from UniProt P51531 1-1590) (natural protein)
% PLA-positive cells (spread cells, high mechanical inputs): 94.7%

Reference: publication PMC7612964
